Consider 20 sequences from the DeepSol protein solubility set.

The nature of the data set: soluble on expression in E. coli; label from the status in PepcDB or PDB records.
For “MIDWPLAELLPHAGDMILIDQVLAFDEEQIRTRLEVRPGGLFNRPDGSLPAWVGVELMAQSVAAYAGCRARQQGLPVELGFLLGTRKFECNVEHFPLGSTLEIHALRSLEDDNGMGVFECHLSGPGITASARLNVFRPPQAADYLHETPLEHHHHHH”, the “soluble on expression in E. coli” value is listed as “not soluble”.
Then “GGDGNITTENIPVSEYDCLELEGGGMVVNYTQSDAPEGLEIKTDRNIFEKYEFNVENHKLKIRPKKEFRKHTNFRPTEFMVTANSRNLKKLAAAGSTHVNINSPLQAEEFEAGLAGSGIIQFHDTASFTNLKIEIAGSGDFVGHKVYCEELNGDMAGSNTIVLGGTVGIAEFSIAGSGTVRAFDCTMDELECKIAGSGDIEAFVVNKIKAEIAGSGSVKYKGDPQDIQKKVMGSGKIEKVE”, with “soluble”; and “MSLAAIDKTTVATVNGEKITLGEVDSHLKGVFAQMKSQYGDKYMDDPQVAQQILQQRQSVVQGLVTDKVLGIEADKLGIKPSEEEIKKKVDEQFENIKKGMGDNFDKALEAEGYTEDTFKDVIKNQVINQAVQDYIIKDVKVTDEDAQKYYDENKQQFVAKDSGVLTKHLLFENEEEAQKAYDEIQSGKTTFNDLFTKYENNKSENKKPIAENLGVVPAENSGLVQEFVDGLKPLKEGEISKPIKTQFGYHIIQAGATYEKGAQLPFDDVKSQIIQILKQQKDSEKFKADMDQWKKDLNVKVYDDKLQEGLKISEGHHHHHH”, with “soluble”; and “MTPRIIVTDMDGTLLNSEHEIPARFWPLLDEMHEQGIVFAPASGRQLYTLLDQFAQAGKDLSVIAENGTVVYHEGEIISVTTIDPEVAHRVIRTMAHSDLDWGVVVCRVDGAFIARGDVEFLTETVRYYAKLDVVDDLHSVVNDQVIKLAIYSFPDAETVAAPALAESVGDHTLAISGAHWIDIMSPHANKGVALQQLADNLGVPIEHTAAFGDYLNDYELLHTAGTAYAMSNAHPDIKDIADHVVGSNDEESVLTTIHSLLTAAK”, with “not soluble”.
Then “MATAIAITSLLIISGCSSNVETTTVKKETMQSQQKNTETVNTTPQNFYKDITSGKIEHIHGIGYVGNVPWVSIATHSGIKVYQNGKWLETATQLHDYMGFQATKNGFFASGHPEPGANLKNPLGLMKSSDGGNTLEKLAFYGESDFHNLAVGYNTEAIYLYNERPNSKLQQGFYFSTNNGQDWKNSKLKGLSSTVHSFSVHPDQSSVVAVSTKDGVYLSTDYGNTFELFSKSLESTAVTLSNEDVIYAPINTQIVTKKSIATNEETNIQIPLLDSKDAIMYISQNPQNAAEIVFATMKANVFLSTDEGKTWKQLTKEGTLQFN”, with “not soluble”; and “MTLDYIYHSGFAIEAEGVTVIIDYYKDSSETEHNRGIVHDYLLQRPGKLYVLATHFHPDHFNREILTWKEARPDIRYIFSKDILKSHRAKPEDATYIKKGETYEDETIRIEAFGSTDVGSSFLIHLQDWNIFHAGDLNNWHWSEESTEAEIRKANGDFLAEVKYLKEKAPKIDLALFPVDRRMGKDYMKGAKQFIEQIKTTIFVPMHFSEDYEGGNALRDFAENAGCRFVSITHRGESFEITK”, with “not soluble”; and “MSLQNAYWLTNVRLETGYKFNNEVVTGTETALHHLLIQDGKIEKIVLADVPLQTEYETKDAKELLVLPSFVENHFHLDKTKLGGPWEACTPVKNIIERLELEQQELPILAQTTGERAELLLRNILNAGSTHIRTHVNIDPYIGLKNLESVRQTLENMKDAFTYEIVAFPQHGLLRTEAHSLMREAMKMGATLVGGVDPATVDNNIEKSLFDMMEIAVEANADVDLHLHDAGHLGIYTIKKLAQYTEEASWDGRVAVSHAFSLGDVSKEEGADMADLLAERGMSIITTVPINRNMPPVPLLTEKGVPISLGCDSMFDSWGPFGNADIFERVGRLAEKYRWMDEKSLASSLAYITGGKTPLDQEGNQVWPKVGDKADFVFLQATCSAEAIARRAKRPAVMRDGKIVAGSLQHVQGVLIEGHHHHHH”, with “soluble”.
Then “MAHHHHHHMPETTHVTNDAAVPQKHIVEKPHLMDLFRSSASFAKIIAYLQGCSDSVNGTPRSARMVQKASELHPTVRFFVETFFPHLHKIVEEVPLQDMKKQRFGNRAFRVFHERLEADVGGLMQQLVLTLPARSGERSEEEQRCLAVELAEYIKDSFGNSTRIDYGTGHELHFFVVIMICLEECGDAGGTLQAEPTTIVSLNFPQPAPVLVDKRDRVCRLRQGMVFDVFGAYLTFMRRLQKHYHLEPAGSHGVWGLDDYHHLPFIFGAAQLIGKEVPHKTDDSGNGKGYGAILPKHVCEENAVRLHADEYFYFAQVAWVRENKTGPFFEHSSMLYNISGVESWQKIYTGMVKMYAAEVLSKFNVVQHLLFGTHLPWPPDV”, with “soluble”; and “MGSDKIHHHHHHMETREAIFGRRSIRKYLDKPIEPEVLQDILEGAVMAPSAVNNQPWYFLAIKSQEQMEKLRGIFQEVSVKTKAVLEKRFPNNPEVVSETLGFLTSLGNARVCVLVFLLKPSKDYDIIAVESTSAAIQNLCLVAYDKGIGSCWMTAPLSTGFGDVLEKTFAPGKGKFIAAVTLGYPAVSPQAPKRKAGRYEII”, with “not soluble”.
With “MAQLTHINAAGEAHMVDVSAKAETVREARAEAFVTMRSETLAMIIDGRHHKGDVFATARIAGIQAAKRTWDLIPLCHPLMLSKVEVNLQAEPEHNRVRIETLCRLTGKTGVEMEALTAASVAALTIYDMCKAVQKDMVIGPVRLLAKSGGKSGDFKVEADD”, the “soluble on expression in E. coli” value is reported as “soluble”.
For “MGSDKIHHHHHHMGQKVHPRGFRLGLSADWQAKWFNEKNYKEWLLEDEEIRKIIKNKYYHAGISEIYVERPDAERINITVKTARPGIIIGRKGSEITSLREELERKFNRRVVINIEEIKTPELDAQLVAESIASRIEKRASYKVAMKRAIMNAMRKGAQGIKVMVAGRLGGAEIARREWYLRGRLPLQKIKAIIDYGTATAWTKYGTIGIKVWIYKGDADI”, the “soluble on expression in E. coli” value is reported as “not soluble”.
As for “GPGSTGASLGMMWKDKLNAMTKEEFTRYKRAGVMETDRKEARDYLKRGDGKTGLSVSRGTAKLAWMEERGYVELTGRVVDLGCGRGGWSYYAASRPHVMDVRAYTLGVGGHEVPRITESYGWNIVKFKSRVDIHTLPVERTDVIMCDVGESSPKWSVESERTIKILELLEKWKVKNPSADFVVKVLCPYSVEVMERLSVMQRKWGGGLVRNPYSRNSTHEMYFTSRAGGNIIGAVTACTERLLGRMARRDGPVVVPELNLGTGTR”, the “soluble on expression in E. coli” value is “soluble”.
For “SLSKRLLSLASLALLFGCAQQPNDRAQQYQQQTFPHILNRADVVESNKPRDYTEFSKQSELVVQGSASMAKIYRPLYEQLNEWVLQSGDPATLAQFGIQAAQLGGGDKQGNVLFTGYFSPVIELRHQPDSVFKYPVYGLPKCNKNCPTRAEIYQGALDGQGLELGYAENLIDPFIMEVQGSGFVHFGDDDTLEYFAYAGKNNKAYVSIGKVLIERGLVEREKMSLKAIKDWVLANDEATVRELLEENPSFVFFKPSAAAPVKGSAGIPLLPMASVAGDRSILPMGTPILAEVPLLNADGTWSGAHQLRLLIVLDTGGAVKQNHLDLYHGMGPRAGLEAGHYKHFGRVWKLGLENSPTQAPWALPPEKQQ” the value was “not soluble”.
In the case of “MSIITRLFNNSDFEKLNQLCKLYDDLGYPTNENDLKKRLKKITNHDDYFLLLLIKENKIIGLSGMCKMMFYEKNAEYMRILAFVIHSEFRKKGYGKRLLADSEEFSKRLNCKAITLNSGNRNERLSAHKLYSDNGYVSNTSGFTKQL”, the “soluble on expression in E. coli” value was “soluble”.
Turning to “MLLKSHHSGGRKTRFLTVLDVGSSKIVCLIACLRPLKHAHYLHGRTHSMEILGFGVQRSRGIKSGVVMDIFAAEQSIRLAVDAAEKMAGLVVDSVIVNFSSSRLQSALINGVVSLNGREVTKRDIRVAFADVSRKAFNAERHVVHSVPVSYVLDGDKGISDPVGMIGDFFGVDVHVVTAETAALRNLETCINRAHLSVEAMVVTPFASGLAVLMNDEAHLGAACIDFGGGTTTFSVFSEGKFVHANALAVGGHHVTLDVARGFSMSLPEAERLKVVYGSALVTSADERHMVNVTEIGNEHREIQYPRAVLGRIIRARVEEILEMVRDCLNRSGFGHIIGKRVILTGGASQLTGLPEMARTILGRNVRIGRPLGISRLPSLAKGAAFTSAVGLLIYPQLVGFEEKTMQVAVNHLSTGTRGYFQRVGQWLRESF”, the “soluble on expression in E. coli” value was “not soluble”.
For “MAPENHDGEKHFAEIVKDFGETSMNDNGLDTGEQAKAFAWGKVRDALSQQVNQHVESWLSPWGNASVDVKVDNEGHFTGSRGSWFVPLQDNDRYLTWSQLGLTQQDNGLVSNVGVGQRWARGNWLVGYNTFYDNLQDENLQRAGFGAEAWGEYLRLSANFYQPFAAWHEQTATQEQRMARGYDLTARMRMPFYQHLNTSVSLEQYFGDRVDLFNSGTGYHNPVALSLGLNYTPVPLVTVTAQHKQGESGENQNNLGLNLNYRFGVPLKKQLSAGEVAESQSLRGSRYDNPQRNNLPTLEYRQRKTLTVFLATPPWDLKPGETVPLKLQIRSRYGIRQLIWQGDTQILSLTPGAQANSAEGWTLIMPDWQNGEGASNHWRLSVVVEDNQGQRVSSNEITLTLVEPFDALSNDELRWEP” the value was “not soluble”; for “NYASHTERQILEVSPVVADEALAQALECKPGTTWLRVRMLRVEKDAAHTPLCWNDAYMLPDVGQRIVGKIPNGSGLLCRIIENEAGIAVADIKQSIGATAIEGEMASRLGVAPGTPGLEITRLYVDRANTPFLITVNTYSAHKFR”, “not soluble”; for “MGSDKIHHHHHHMQDTKYYEPTNIFRQPAINIKKRSDKKRILQSMMTLSTYKKTWQNNTSKMNSPILRKASDNFNDYYTTKKLKSDYWKLYGVDESELSIPSDMSIVDNILLVSTMNEKDNLKLFEISAEKKLKELQTITVPGKPITCICLLPMVDFPPQIFPSSQINPNHNQLILTGHQDGIVNLIATSTYKGCAKIIKRFNHNKFLKSTVSTSIPILEITPKTAPILKVSPWNKTGFVSLLNDSLFIYDLKSNLDCIKTPIFLQSYPGINSFAVNEFHDPFLLALVGSKFGPNGISLLDLRTNLYIPDILDNSISAGCGKDHLQRKNTSLDCVWISNHHVAQSLNDKIQIWDIQSCDGKPVCELYAKKGYIESLKFNENTGALYSSDDQGFVICWDLQNLQNMKYGELVHGFNSISLDSESELLLTKQVFQCGNIIVSGMSDKNICLKSNDTKANGKGCGFLFLDMANDGSLVTLDNFCELGLHQICQVQFNVDTGKIIDGNGTGKSGISDSSMLSLSNESDHSMTETSDDMFSNSGNWDCSSANTVSEGRLNDDQEDIVFTKRMYSVNDVHLSGSTIDTTVV”, “not soluble”.
For “MEFGASFAYRRIDAHVEATLQEAAQVLEKLVIERDAESAITVASQGTPDAISITQAAHETISIDSILRSSKQPKATIRTPRDSNKNRKLTFPPARIGFKSEQLETCDSGITDSTIDQDPPTPDSLFPSAIYIPAKQKPQMTVSISATTASSCSNKSLYRKHIEKLAIEPLEDIKHLKCRGLKKSKPDDLFPKATYDAGTGKPKMALSPSSMVSVDLSYASTTAKSNSLAYQPMEFVSSDGRVKLWLQPLEKQKKKNSEKSKKRERCIDDAPIPPKQLQSSTKLNIENRTKFSTNLSIGDHVIDLSGILNGSMKKKNLAKLVINGQSYSI” the value was “not soluble”; for “MGKEMASEYELGQVRLGEFQLYTNGEELYRKLFEDINDAEKYIYIHFYIVGKDEISQEFLQLLEKKASSGVEVKLSVDRIGGYKLKKKVISRLKENGVKFTFSKKPKLKNVFYSLHQRNHRRIVTIDGKVSYVGGFNIGKEYLGQNPKFGPWRDYHVRIHGEGAADMERKFAEDWKEDTGEKMPIHESIPTLGNVKYQYLFSNGKGLWEKYGALLKKAKKSLIIATPYFVPSKEMVKELKAALNRGVNVKILVPFKSDAILLKQAAYPYLKDMLHAGAEIYQYRNGFFHGKVTIIDGEIVDIGTANFDNRSFYLNCESNCIIYDKTVVDEVWSRLQVDFHKSKRFSEEDFEKISRWDWFLARIANVLASYL”, “not soluble”.
